Biological target: His-ΔPACC (Neurospora crassa) (UniProt Q7RVQ8)
Experiment: EMSA
Conditions: EMSA: 25 mM HEPES-KOH pH 7.9, 20 mM KCl, 10% glycerol, 1 mM DTT, 0.2 mM EDTA, 0.5 mM PMSF, 12.5 mM benzamidine, 5 µg/mL antipain and pepstatin A, 2 µg …

His-ΔPACC (Neurospora crassa), sequence (Q7RVQ8 1-213, stated change not applied): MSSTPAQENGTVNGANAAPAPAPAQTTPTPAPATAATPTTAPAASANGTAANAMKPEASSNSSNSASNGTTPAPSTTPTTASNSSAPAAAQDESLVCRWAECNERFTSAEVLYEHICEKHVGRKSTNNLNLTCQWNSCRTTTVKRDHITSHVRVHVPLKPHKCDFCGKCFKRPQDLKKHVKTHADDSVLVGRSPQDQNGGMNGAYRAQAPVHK

| Sequence | binding |
| --- | --- |
| GACCCAACAGCCCAACTTGTGCTTGTCTTGTTCTTTTCCGGCCTCGCTAGAGGTACTATTTCTTCGCTTCTTGTCTGACTTTTTTCAATAGCCGTCTTTGGGCCAGAAATTACGTGAGATCGGGGCCGCATGGGAGTATTCGTTGC (double strand) [mpacC probe (CTTGGC to AAATTA)] | binds more weakly |
| GACCCAACAGCCCAACTTGTGCTTGTCTTGTTCTTTTCCGGCCTCGCTAGAGGTACTATTTCTTCGCTTCTTGTCTGACTTTTTTCAATAGCCGTCTTTGGGCCAGCTTGGCCGTGAGATCGGGGCCGCATGGGAGTATTCGTTGC (double strand) [pacC probe (146 bp gsn promoter)] | binds |
